How the values were obtained:
[1] = molecular target: T1, human leukemia inhibitory factor (LIF), soluble (human, UniProt P15018 23-202); test: KinExA with soluble human LIF; KD calculated by the KinExA software
T1 construct: also called human LIF; soluble human LIF
Description: (§1) Binding of the purified LIF inhibitors to soluble LIF was tested using KinExA. Shown in FIG. 10 are binding results for: (1) a homodimer having a WT LIFR CBMI-Ig-like-CBMII Fc fusion as each monomer; (2) a homodimer having LIFR […] Fc as each monomer;

[2] = molecular target: T1, human leukemia inhibitory factor (LIF), …; test: KinExA with soluble human LIF; inhibitor titrated
Description: as §1

[3] = molecular target: T2, wild-type human LIFR displayed on the surface of yeast (human, UniProt P42702 45-534, limits assumed); test: yeast-displayed receptor, no LIF added, anti-Fc detection by flow cytometry
T2 construct: also called LIFR wild-type (WT); wild-type LIFR
T2 sequence: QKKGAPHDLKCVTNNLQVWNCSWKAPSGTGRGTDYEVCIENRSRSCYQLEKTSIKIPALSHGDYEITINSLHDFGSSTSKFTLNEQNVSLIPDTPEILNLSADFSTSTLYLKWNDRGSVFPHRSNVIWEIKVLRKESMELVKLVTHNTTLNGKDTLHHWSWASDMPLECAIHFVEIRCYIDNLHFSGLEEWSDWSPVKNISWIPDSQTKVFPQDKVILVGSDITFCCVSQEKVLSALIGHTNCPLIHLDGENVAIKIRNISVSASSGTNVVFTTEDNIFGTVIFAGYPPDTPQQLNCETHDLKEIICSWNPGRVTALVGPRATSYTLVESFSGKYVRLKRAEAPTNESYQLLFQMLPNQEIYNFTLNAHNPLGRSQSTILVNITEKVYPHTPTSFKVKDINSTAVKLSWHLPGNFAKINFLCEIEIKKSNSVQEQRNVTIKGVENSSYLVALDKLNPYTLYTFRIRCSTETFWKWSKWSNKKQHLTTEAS

[4] = molecular target: T3, wild-type human gp130 CBM domain displayed on the surface of yeast (human, UniProt P40189 124-324); test: as above
T3 construct: also called gp130 wild-type (WT); wild-type gp130
T3 chain: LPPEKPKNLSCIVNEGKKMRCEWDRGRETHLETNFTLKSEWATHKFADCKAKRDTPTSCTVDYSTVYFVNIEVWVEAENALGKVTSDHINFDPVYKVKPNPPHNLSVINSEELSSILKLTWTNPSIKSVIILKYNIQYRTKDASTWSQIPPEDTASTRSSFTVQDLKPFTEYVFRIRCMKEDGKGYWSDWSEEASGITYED

[5] = molecular target: T1, human leukemia inhibitory factor (LIF), …; test: KinExA, purified Fc fusion with soluble human LIF; reference LIFR-WT-Fc
Description: as §1
and (3) a homodimer having LIFR-gp130 V-E fusion Fc as each monomer. KD values calculated from KinExA software and fitted curves are shown.

[6] = molecular target: T1, human leukemia inhibitory factor (LIF), …; test: KinExA, purified Fc fusion with soluble human LIF
[7] = molecular target: T1, human leukemia inhibitory factor (LIF), …; test: cell-based or functional assay

T1 sequence (P15018 23-202 limits assumed): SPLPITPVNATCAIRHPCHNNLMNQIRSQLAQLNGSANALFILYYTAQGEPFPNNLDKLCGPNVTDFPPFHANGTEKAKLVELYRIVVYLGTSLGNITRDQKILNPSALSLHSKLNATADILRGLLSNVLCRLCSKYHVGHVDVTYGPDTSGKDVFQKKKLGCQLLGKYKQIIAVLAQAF

B1: LIFR CBMI-Ig-like-CBMII (VPRVVAID) Fc fusion homodimer (Fc fusion)
chain: QKKGAPHDLKCVTNNLQVWNCSWKAPSGTGRGTDYEVCIENRSRSCYQLEKTSIKIPALSHGDYEITINSLHDFGSSTSKFTLNEQNVSLIPDTPEILNLSADFSTSTLYLKWNDRGSVFPHRSNVIWEIKVLRKESMELVKLVTHNTTLNGKDTLHHWSWASDMPLECAIHFVEIRCYIDNLHFSGLEEWSDWSPVKNISWIPDSQTKVFPQDKVVPVGSDITFCCVSQEKVLSALIGRTDCPLIHLDGENVAIKVRNVSASASSGTNVVFITEDDIFGTVIFAGYPPDTPQGSQLNCETHDLKEIICSWNPGRVTALVGPRATSYTLVESFSGKYVRLKRAEAPTNESYQLLFQMLPNQEIYNFTLNAHNPLGRSQSTILVNITEKVYPHTPTSFKVKDINSTAVKLSWHLPGNFAKINFLCEIEIKKSNSVQEQRNVTIKGVENSSYLVALDKLNPYTLYTFRIRCSTETFWKWSKWSNKKQHLTTEASGSGSGSDKTHTCPPCPAPELLGGPSVFLFPPKPKDTLMISRTPEVTCVVVDVSHEDPQVKFNWYVDGVQVHNAKTKPREQQYNSTYRVVSVLTVLHQNWLDGKEYKCKVSNKALPAPIEKTISKAKGQPREPQVYTLPPSREEMTKNQVSLTCLVKGFYPSDIAVEWESNGQPENNYKTTPPVLDSDGSFFLYSKLTVDKSRWQQGNVFSCSVMHEALHNHYTQKSLSLSPGK
In the case of B1, the Kd [1] is reported as 0.0231 nM, the “EC50 (read off the curve)” value [2] is reported as roughly 0.05 nM and the binding result [3] is reported as “no binding”. For the same binder, the binding result [4] was “no binding”, the “fold improvement in affinity over LIFR-WT-Fc” value [5] was 43 fold and the Kd [6] was 0.023 nM. For the same binder, the “IC50, inhibition of LIF derived luciferase activity in HeLa STAT3 luciferase reporter cells” value [7] was 0.035 nM and the “fold improvement in IC50 over LIFR WT Fc, inhibition of LIF derived luciferase activity in HeLa reporter cells” value [7] was 53 fold.
